# In patent US20150010525A1, “Catalytic Tagging System to Study Macro-Molecular Interactions Using Engineered Ubiquitin Ligase and Ubiquitin-Like Proteins to Facilitate Substrate Identification” (THE REGENTS OF THE UNIVERSITY OF CALIFORNIA, priority 2012, published 2015):
# Molecular target: T1, cIAP1 (Homo sapiens, UniProt P61081+Q13490)
# T1 construct: cIAP1(ΔR) (residues 1-555); GST (N, cleaved yes); made in house; host or cells: E. coli BL21 (DE3)
# Assay: SILAC mass spectrometry screen for cIAP1 substrates with NEDDylator^cIAP1 in apoptotic Jurkat cell lysate
# Type: biochemical
# Settings: Light lysate with NEDDylator^cIAP1, Heavy lysate with Ubc12
# Description: Jurkat cells were grown in media containing either light or heavy isotopes of lysine and arginine and induced to undergo apoptosis with STS. Light cell extracts were incubated with the respective catalytic tagging system for each of the two IAPs and the heavy extracts labeled only with the wild-type NEDD8 E2, Ubc12. […] 100 mg ^13C6^15N2 L-Lys.2HCl and 86 mg ^13C6 L-Arg.HCl (Cambridge Isotope) were added to the same amount of medium to generate the “Heavy” medium. Jurkat cells were cultured separately in “Light” or “Heavy” medium for 7 days to allow for thorough isotope incorporation. For IAP substrate identification, 400 million cells were treated with 2 μM STS for 4 hours, harvested, lysed in M-PER mammalian protein extraction buffer (Thermo/Pierce) in the presence of protease inhibitors (100× ProteoBlock cocktail, Fermentas) and mixed with cell lysate prepared from 400 million untreated cells. […] Purified NEDDylated proteins were trypsinized and analyzed with tandem mass spectrometry (LC-MS/MS).
# For SILAC experiments, Jurkat cells were cultured separately in “Light” (supplemented with regular Lys and Arg) or “Heavy” (supplemented with ^13C6^15N2 Lys and ^13C6 Arg) medium for 7 days to allow for thorough isotope incorporation. Apoptotic “Light” and “Heavy” cell extracts were prepared individually. The lysates were cleared by spinning and then diluted in 50 mM HEPES pH 7.4, 150 mM NaCl to 5 mg/ml and supplemented with 5 mM ATP, 10 mM MgCl2. Endogenous NEDD8 E1 is cell lysate was used to catalyze the reaction. HB-NEDD8 was added to both lysate at mass ratio 1:500; the catalytic tagging system was added to the “Light” lysate at mass ratio 1:1000. Equal molar of Ubc12 was added to the “Heavy” lysate. […] NEDDylated proteins were separated by one-dimensional SDS-PAGE, and trypsinized for LC-MS/MS analysis.
# For liquid chromatography—Tandem mass spectrometry (LC-MS/MS) analysis, the tryptic peptides were first desalted and concentrated with a C18 Ziptip (Millipore). LC-MS/MS was carried out by reverse phase LC interfaced with a LTQ-Orbitrap (ThermoFisher Scientific) hybrid mass spectrometer. A nanoflow HPLC (NanoAcquity UPLC system, Waters Corporation) was equipped with a trap column (180 μm×20 mm, 5 μm SymmetryC18, from Waters) and an analytical column (100 μm×100 mm, 1.7 μm BEH130C18, from Waters). Peptides were eluted over a linear gradient from 2% solvent A (0.1% formic acid in water) to 35% solvent B (0.1% formic acid in acetonitrile) at 350 nL/min over 35 min. MS and MS/MS spectra were acquired in a data-dependent mode with MS spectra acquired in the Orbitrap at 30,000 resolving power and 6 CID MS/MS spectra acquired per MS in the LTQ linear ion trap. Dynamic exclusion was set at 90 seconds to prevent repeated MS/MS on the same precursor ion.
# The identified peptides were searched against a random decoy protein database for evaluating the false positive rates. […] The decoy peptides were removed from the data. Protein IDs were assigned only when at least two unique peptides were identified from the same protein. For SILAC experiment, Light/Heavy ratios for the identified peptides were calculated, using ProteinProspector. The media Light/Heavy ratios of all the peptides identified for each protein were used to represent the Light/Heavy ratio of the protein.
# T1 sequence (Q13490+P61081 fused): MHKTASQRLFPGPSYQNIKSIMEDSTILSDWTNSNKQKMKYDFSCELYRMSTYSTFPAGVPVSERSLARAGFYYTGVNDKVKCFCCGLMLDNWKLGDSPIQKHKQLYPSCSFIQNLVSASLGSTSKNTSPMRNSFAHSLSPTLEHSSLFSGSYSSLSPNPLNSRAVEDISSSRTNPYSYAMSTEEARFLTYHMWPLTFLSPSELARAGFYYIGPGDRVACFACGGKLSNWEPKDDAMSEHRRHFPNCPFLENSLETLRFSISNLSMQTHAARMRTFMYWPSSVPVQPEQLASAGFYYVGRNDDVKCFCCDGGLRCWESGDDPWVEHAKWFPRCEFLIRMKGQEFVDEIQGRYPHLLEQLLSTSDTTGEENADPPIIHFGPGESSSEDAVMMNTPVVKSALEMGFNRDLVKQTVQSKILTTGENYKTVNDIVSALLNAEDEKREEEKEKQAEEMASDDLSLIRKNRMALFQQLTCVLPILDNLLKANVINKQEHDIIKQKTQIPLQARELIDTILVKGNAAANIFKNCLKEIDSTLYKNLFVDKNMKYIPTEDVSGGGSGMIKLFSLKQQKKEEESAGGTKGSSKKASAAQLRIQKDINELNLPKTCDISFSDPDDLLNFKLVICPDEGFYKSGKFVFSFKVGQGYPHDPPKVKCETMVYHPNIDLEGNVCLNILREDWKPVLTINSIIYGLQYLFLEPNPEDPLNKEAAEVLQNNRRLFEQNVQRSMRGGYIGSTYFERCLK
row,Molecule,L/H (Light/Heavy ratio)
1,ELAV-like protein 1: potential cIAP1 substrate,8.78
2,Eukaryotic initiation factor 4A-I: potential cIAP1 substrate,5.31
3,Glyceraldehyde-3-phosphate dehydrogenase: potential cIAP1 substrate,5.21
4,Hemoglobin subunit alpha: potential cIAP1 substrate,5.22
5,Heterogeneous nuclear ribonucleoprotein U: potential cIAP1 substrate,4.15
6,"Isocitrate dehydrogenase [NAD] subunit beta, mitochondrial: potential cIAP1 substrate",14
7,Non-POU domain-containing octamer-binding protein: potential cIAP1 substrate,7.52
8,TAR DNA-binding protein 43: potential cIAP1 substrate,26.9
9,"Heterogeneous nuclear ribonucleoprotein A0: potential cIAP1 substrate (protein, UniProt Q13151 1-305, looked up) Heterogeneous nuclear …: MENSQLCKLFIGGLNVQTSESGLRGHFEAFGTLTDCVVVVNPQTKRSRCFGFVTYSNVEEADAAMAASPHAVDGNTVELKRAVSREDSARPGAHAKVKKLFVGGLKGDVAEGDLIEHFSQFGTVEKAEIIADKQSGKKRGFGFVYFQNHDAADKAAVVKFHPIQGHRVEVKKAVPKEDIYSGGGGGGSRSSRGGRGGRGRGGGRDQNGLSKGGGGGYNSYGGYGGGGGGGYNAYGGGGGGSSYGGSDYGNGFGGFGSYSQHQSSYGPMKSGGGGGGGGSSWGGRSNSGPYRGGYGGGGGYGGSSF",20.7
10,"Medium-chain specific acyl-CoA dehydrogenase, mitochondrial: potential cIAP1 substrate (protein, UniProt P11310 26-421, looked up) Medium-chain specific …: KANRQREPGLGFSFEFTEQQKEFQATARKFAREEIIPVAAEYDKTGEYPVPLIRRAWELGLMNTHIPENCGGLGLGTFDACLISEELAYGCTGVQTAIEGNSLGQMPIIIAGNDQQKKKYLGRMTEEPLMCAYCVTEPGAGSDVAGIKTKAEKKGDEYIINGQKMWITNGGKANWYFLLARSDPDPKAPANKAFTGFIVEADTPGIQIGRKELNMGQRCSDTRGIVFEDVKVPKENVLIGDGAGFKVAMGAFDKTRPVVAAGAVGLAQRALDEATKYALERKTFGKLLVEHQAISFMLAEMAMKVELARMSYQRAAWEVDSGRRNTYYASIAKAFAGDIANQLATDAVQILGGNGFNTEYPVEKLMRDAKIYQIYEGTSQIQRLIVAREHIDKYKN",6.17
11,"Pre-mRNA-processing factor 19: potential cIAP1 substrate (protein, UniProt Q9UMS4 2-504, looked up) Pre-mRNA-processing factor 19: SLICSISNEVPEHPCVSPVSNHVYERRLIEKYIAENGTDPINNQPLSEEQLIDIKVAHPIRPKPPSATSIPAILKALQDEWDAVMLHSFTLRQQLQTTRQELSHALYQHDAACRVIARLTKEVTAAREALATLKPQAGLIVPQAVPSSQPSVVGAGEPMDLGELVGMTPEIIQKLQDKATVLTTERKKRGKTVPEELVKPEELSKYRQVASHVGLHSASIPGILALDLCPSDTNKILTGGADKNVVVFDKSSEQILATLKGHTKKVTSVVFHPSQDLVFSASPDATIRIWSVPNASCVQVVRAHESAVTGLSLHATGDYLLSSSDDQYWAFSDIQTGRVLTKVTDETSGCSLTCAQFHPDGLIFGTGTMDSQIKIWDLKERTNVANFPGHSGPITSIAFSENGYYLATAADDSSVKLWDLRKLKNFKTLQLDNNFEVKSLIFDQSGTYLALGGTDVQIYICKQWTEILHFTEHSGLTTGVAFGHHAKFIASTGMDRSLKFYSL",22.2
12,"Elongation factor 1-alpha 1: potential cIAP1 substrate (protein, UniProt P68104 2-462, looked up) Elongation factor 1-alpha 1: GKEKTHINIVVIGHVDSGKSTTTGHLIYKCGGIDKRTIEKFEKEAAEMGKGSFKYAWVLDKLKAERERGITIDISLWKFETSKYYVTIIDAPGHRDFIKNMITGTSQADCAVLIVAAGVGEFEAGISKNGQTREHALLAYTLGVKQLIVGVNKMDSTEPPYSQKRYEEIVKEVSTYIKKIGYNPDTVAFVPISGWNGDNMLEPSANMPWFKGWKVTRKDGNASGTTLLEALDCILPPTRPTDKPLRLPLQDVYKIGGIGTVPVGRVETGVLKPGMVVTFAPVNVTTEVKSVEMHHEALSEALPGDNVGFNVKNVSVKDVRRGNVAGDSKNDPPMEAAGFTAQVIILNHPGQISAGYAPVLDCHTAHIACKFAELKEKIDRRSGKKLEDGPKFLKSGDAAIVDMVPGKPMCVESFSDYPPLGRFAVRDMRQTVAVGVIKAVDKKAAGAGKVTKSAQKAQKAK",4.4
13,"Acetyl-CoA acetyltransferase, mitochondrial: potential cIAP1 substrate (protein, UniProt P24752 34-427, looked up) Acetyl-CoA acetyltransferase, …: VSKPTLKEVVIVSATRTPIGSFLGSLSLLPATKLGSIAIQGAIEKAGIPKEEVKEAYMGNVLQGGEGQAPTRQAVLGAGLPISTPCTTINKVCASGMKAIMMASQSLMCGHQDVMVAGGMESMSNVPYVMNRGSTPYGGVKLEDLIVKDGLTDVYNKIHMGSCAENTAKKLNIARNEQDAYAINSYTRSKAAWEAGKFGNEVIPVTVTVKGQPDVVVKEDEEYKRVDFSKVPKLKTVFQKENGTVTAANASTLNDGAAALVLMTADAAKRLNVTPLARIVAFADAAVEPIDFPIAPVYAASMVLKDVGLKKEDIAMWEVNEAFSLVVLANIKMLEIDPQKVNINGGAVSLGHPIGMSGARIVGHLTHALKQGEYGLASICNGGGGASAMLIQKL",5.67
14,"Putative annexin A2-like protein: potential cIAP1 substrate (protein, UniProt A6NMY6 2-339, looked up) Putative annexin A2-like …: STVHEILCKLSLEGDHSTPPSAYGSVKAYTNFDAERDALNIETAIKTKGVDEVTIVNIVTNRDNAQRQDIVFSYQRRTKKELASALKSALSGHLETVILGLLKTPAQYDASELKASMKGLGTDEDSLIEIICSRTNQELQEINRVYKEMYKTDLEKDIISDTSGDFRKLMVALAKGRRAEDGSVIDYELIDQDAQDLYDAGVKRKGTDVPKWISIMTERSVPHLQKVFDRYKSYSPYDMLESIRKEVKGDLENAFLNLVQRIQNKPLYFADQLYDSMKGKGTRDKVLIRIMVSRSEVDMLKIRSEFKRKYGKSLYYYIQQDTKGDYQKALLYLCGGDD",8.75
15,"Isocitrate dehydrogenase [NADP], mitochondrial: potential cIAP1 substrate (protein, UniProt P48735 40-452, looked up) Isocitrate dehydrogenase …: ADKRIKVAKPVVEMDGDEMTRIIWQFIKEKLILPHVDIQLKYFDLGLPNRDQTDDQVTIDSALATQKYSVAVKCATITPDEARVEEFKLKKMWKSPNGTIRNILGGTVFREPIICKNIPRLVPGWTKPITIGRHAHGDQYKATDFVADRAGTFKMVFTPKDGSGVKEWEVYNFPAGGVGMGMYNTDESISGFAHSCFQYAIQKKWPLYMSTKNTILKAYDGRFKDIFQEIFDKHYKTDFDKNKIWYEHRLIDDMVAQVLKSSGGFVWACKNYDGDVQSDILAQGFGSLGLMTSVLVCPDGKTIEAEAAHGTVTRHYREHQKGRPTSTNPIASIFAWTRGLEHRGKLDGNQDLIRFAQMLEKVCVETVESGAMTKDLAGCIHGLSNVKLNEHFLNTTDFLDTIKSNLDRALGRQ",6.51
16,"Rho GDP-dissociation inhibitor 2: potential cIAP1 substrate (protein, UniProt P52566 2-201, looked up) Rho GDP-dissociation …: TEKAPEPHVEEDDDDELDSKLNYKPPPQKSLKELQEMDKDDESLIKYKKTLLGDGPVVTDPKAPNVVVTRLTLVCESAPGPITMDLTGDLEALKKETIVLKEGSEYRVKIHFKVNRDIVSGLKYVQHTYRTGVKVDKATFMVGSYGPRPEEYEFLTPVEEAPKGMLARGTYHNKSFFTDDDKQDHLSWEWNLSIKKEWTE",8.76
